In test [1] the target is T1, AtPIF3 (1-100)-EYFP, P3.100 (Arabidopsis thaliana, UniProt O80536 1-100).
T1 sequence (looked up): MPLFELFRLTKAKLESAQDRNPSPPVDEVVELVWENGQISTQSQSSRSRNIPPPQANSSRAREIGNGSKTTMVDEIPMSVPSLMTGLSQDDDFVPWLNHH
Put plainly: cell-based or functional assay.

Test [2] concerns the target T2, AtPIF6 (1-100)-EYFP, P6.100 (Arabidopsis thaliana, UniProt Q8L5W7 1-100).
T2 sequence (looked up): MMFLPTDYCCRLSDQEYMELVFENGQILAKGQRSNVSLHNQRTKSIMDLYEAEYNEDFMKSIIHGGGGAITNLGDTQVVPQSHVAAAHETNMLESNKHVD
Description: cell-based or functional assay.

Test [3] concerns the target T3, P6.A-EYFP (Arabidopsis thaliana).
T3 chain: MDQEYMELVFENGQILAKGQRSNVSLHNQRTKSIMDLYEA
Put plainly: cell-based or functional assay.

In another test the target is T4, P3.A-EYFP (Arabidopsis thaliana).
T4 chain: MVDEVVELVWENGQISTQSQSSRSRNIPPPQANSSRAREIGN
Put plainly: SEC; 50 µM AtPhyB PCM + 10 µM AtPIF-EYFP (5:1), illuminated with red light (650 nm, 2 min; results say 640 nm), Pfr state; Superdex 200 Increase 10/300 GL; 67 mM sodium phosphate pH 8.0, 200 mM NaCl. The note with it: both partners purified. In general terms: Size exclusion chromatography separates by hydrodynamic size, large species first.

The target in test [4] is T5, P6 (AtPIF6 1-100 without the N-terminal region preceding APB.A)-EYFP (Arabidopsis thaliana).
T5 chain: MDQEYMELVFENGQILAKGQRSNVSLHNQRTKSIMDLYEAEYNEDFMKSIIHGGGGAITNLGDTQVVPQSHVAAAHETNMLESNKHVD
The description is as above. The note with it: both partners purified.

A further test deals with T6, P6.AA-EYFP (Arabidopsis thaliana).
T6 chain: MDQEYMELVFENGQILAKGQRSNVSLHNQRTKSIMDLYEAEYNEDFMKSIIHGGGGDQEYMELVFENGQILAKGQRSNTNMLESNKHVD
Described as above. The note with it: both partners purified.

Test [5] concerns the target T1, AtPIF3 (1-100)-EYFP, P3.100. Described as above. The settings on record: both partners purified.
Test [6] addresses T7, P3 (AtPIF3 1-100 without the N-terminal region preceding APB.A)-EYFP (Arabidopsis thaliana).
T7 chain: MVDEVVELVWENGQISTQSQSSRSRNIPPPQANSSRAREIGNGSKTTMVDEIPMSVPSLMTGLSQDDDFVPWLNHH
The description is as above. The settings on record: both partners purified.

A further test deals with T8, P3.AA-EYFP (Arabidopsis thaliana).
T8 chain: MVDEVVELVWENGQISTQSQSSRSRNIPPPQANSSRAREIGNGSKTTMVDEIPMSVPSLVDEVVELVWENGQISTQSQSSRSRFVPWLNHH
The description is as above. The note with it: both partners purified.

Test [7] has as its target T2, AtPIF6 (1-100)-EYFP, P6.100. The description is as above. The settings on record: both partners purified.
Test [8] deals with T3, P6.A-EYFP. The description is as above. The settings on record: both partners purified.
In a further test the target is T9, P3.AAfus-EYFP (Arabidopsis thaliana).
T9 chain: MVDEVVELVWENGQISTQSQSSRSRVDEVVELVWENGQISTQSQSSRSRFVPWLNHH
The test is described as above. The settings on record: both partners purified.

The next test concerns the target T10, P6.As-EYFP (Arabidopsis thaliana).
T10 chain: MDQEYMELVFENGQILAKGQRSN
The test is described as above. The settings on record: both partners purified.

B1: Arabidopsis thaliana phytochrome B photosensory core module (AtPhyB PCM) (domain or fragment, UniProt P14713 1-651, looked up)
chain: MVSGVGGSGGGRGGGRGGEEEPSSSHTPNNRRGGEQAQSSGTKSLRPRSNTESMSKAIQQYTVDARLHAVFEQSGESGKSFDYSQSLKTTTYGSSVPEQQITAYLSRIQRGGYIQPFGCMIAVDESSFRIIGYSENAREMLGIMPQSVPTLEKPEILAMGTDVRSLFTSSSSILLERAFVAREITLLNPVWIHSKNTGKPFYAILHRIDVGVVIDLEPARTEDPALSIAGAVQSQKLAVRAISQLQALPGGDIKLLCDTVVESVRDLTGYDRVMVYKFHEDEHGEVVAESKRDDLEPYIGLHYPATDIPQASRFLFKQNRVRMIVDCNATPVLVVQDDRLTQSMCLVGSTLRAPHGCHSQYMANMGSIASLAMAVIINGNEDDGSNVASGRSSMRLWGLVVCHHTSSRCIPFPLRYACEFLMQAFGLQLNMELQLALQMSEKRVLRTQTLLCDMLLRDSPAGIVTQSPSIMDLVKCDGAAFLYHGKYYPLGVAPSEVQIKDVVEWLLANHADSTGLSTDSLGDAGYPGAAALGDAVCGMAVAYITKRDFLFWFRSHTAKEIKWGGAKHHPEDKDDGQRMHPRSSFQAFLEVVKSRSQPWETAEMDAIHSLQLILRDSFKESEAAMNSKVVDGVVQPCRDMAGEQGIDELGA
modifications: covalently incorporated bilin chromophore (PCB; co-expressed Synechocystis sp. heme oxygenase 1 and pcyA)
notes: A. thaliana phytochrome B, photosensory core module (PAS-GAF-PHY with N-terminal extension), residues 1-651; Pr state (far-red light or dark) and Pfr state (red light; Pfr/Pr about 0.56/0.44) are told apart by the assays; In the cell experiments other constructs were used (PCM-VP16; PCM 1-650 with CAAX); source: E. coli BL21(DE3), plasmid pDG282, purified (Ni-NTA IMAC, anion exchange)
In the case of B1, the figures for the “normalized SEAP reporter expression in CHO-K1 cells, split transcription factor (AtPhyB PCM-VP16 + E-protein-AtPIF variant), red light against darkness” value (in test [1]; in test [2]; in the test with P6.A-EYFP [3]) were 10 fold, 4 fold and 43 fold, respectively. Further, the “stoichiometry N” value (with P3.A-EYFP; in [4]; in the test with P6.AA-EYFP; in test [5]; in [6]; with P3.AA-EYFP) was 1 each time. The “stoichiometry N” value (in test [7]; in the test with P6.A-EYFP [8]; in the test with P3.AAfus-EYFP; in the test with P6.As-EYFP) was 1 in each case.

As usually defined, the stoichiometry N is a count of units in the complex or per binding partner.

The record behind these values is PMC6888877, “Deconstructing and repurposing the light-regulated interplay between Arabidopsis phytochromes and interacting factors” (Communications Biology, 2019).
